# Test results published in patent publication US20110311517A1 (SHENOGEN PHARMA GROUP, published 2011).
# T1: biotinylated ERα36 (chemically synthesised target peptide, SEQ ID NO:2) (human, labeled with biotin (site not stated))
# T1 construct: also called biotinylated ER36; biotinylated ERα36 peptides
# T1 peptide: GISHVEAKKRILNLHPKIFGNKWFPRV
# T2: recombinant human ERα36 (hER-α36, SEQ ID NO:1) expressed in HEK293 cells (human, UniProt P03372 174-457)
# T2 construct: Present in lysates of ERα36-expressing HEK293 cells, separated by SDS-PAGE and blotted on PVDF (Western blot); also called recombinant ERα36
# T2 sequence: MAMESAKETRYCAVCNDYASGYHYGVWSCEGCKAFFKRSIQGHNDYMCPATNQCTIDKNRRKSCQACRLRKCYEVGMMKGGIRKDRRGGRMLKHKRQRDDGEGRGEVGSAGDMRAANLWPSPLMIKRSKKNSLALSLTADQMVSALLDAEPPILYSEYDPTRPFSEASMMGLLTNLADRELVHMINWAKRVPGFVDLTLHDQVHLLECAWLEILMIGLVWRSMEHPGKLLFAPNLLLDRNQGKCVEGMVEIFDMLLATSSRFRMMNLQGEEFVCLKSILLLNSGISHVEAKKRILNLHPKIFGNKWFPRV
# Assays:
# [1] = target: T1, biotinylated ERα36 (chemically …); assay: ELISA on biotinylated ERα36 (streptavidin plate), ScFv 0.28 µg/ml, well 1
# Protocol: (§1) Streptavidin-coated 96-well plates were washed twice with PBS. Biotinylated ERα36 (final concentration of 20 μg/ml) was added into each testing well. The plates were incubated for 2 h at room temperature and washed three times with PBST. Re-natured ScFv samples (100 μl, S14A1r1, S24A2r2, S33A2r1, S41A3r3, S53A1r1, S66A1r1 and S72A2r1) were added into the testing wells respectively. Each ScFv was diluted five times in five gradients, and two parallel wells were loaded with each ScFv at each gradient. The plates were incubated at 37° C. for 1 h. The plates were washed three times with PBST, followed by addition of 100 μl anti-His-6 mouse monoclonal antibody (1:2000 dilution) per well and 1 h incubation at 37° C. The plates were washed three times with PBST, followed by addition of 100 μl goat anti-mouse-HRP (1:2500 dilution) per well and 1 h incubation at 37° C. The plates were washed six times with PBST, followed by addition of 100 μl OPD to develop under the protection from light. The reactions were terminated by adding 50 μl 2M H₂SO₄ to each well, and data were collected by microplate reader at 490 nm.
# (§2) One positive control and three negative controls were performed in parallel. The positive control used rabbit anti-ER multi-clonal antibody serum in replacement of the ScFv re-natured sample and goat-anti-rabbit-HRP in replacement of goat-anti-mouse HRP.
# [2] = target: T1, biotinylated ERα36 (chemically …); assay: ELISA on biotinylated ERα36 (streptavidin plate), ScFv 0.28 µg/ml, well 2
# Protocol: as §1, §2
# [3] = target: T2, recombinant human ERα36 (hER-α36, SEQ …); assay: Western blot on lysates of ERα36-expressing HEK293 cells, anti-His-HRP
# Protocol: ScFv1˜ScFv7 obtained after purification and renaturation were characterized using Western Blot. HEK293 cells were artificially constructed to express recombinant ERα36. Human breast cancer cells SK-BR-3 and ERα36-expressing HEK293 cells were cultured, harvested, and lysed by lysis buffer to obtain the cell lysates respectively. 20 μg/lane of the lysates were then loaded for SDS-PAGE. After electrophoresis, the protein samples were electronically transferred to PVDF membrane labeled with ScFv1˜ScFv7 respectively. The membranes were blocked with non-fat milk and anti-His-HRP was added to show the resulting images (FIG. 16).
# [4] = target: T1, biotinylated ERα36 (chemically …); assay: phage ELISA, biotinylated ERα36 on neutravidin plate, well 1
# Protocol: (§3) Neutravidin-coated plates (purchased from Pierce) were washed with washing buffer (PBS containing 0.1% Tween-20) and all wells of the plates were blocked by incubating in blocking buffer at 4° C. for 1-2 h. Then the blocked plates were taken away from the blocking buffer, washed six times with washing buffer and dried upside-down. Biotinylated ERα36 in PBS (100 μl) was added to each testing well of the plates, incubated for 1-2 h at room temperature and removed. The plates were washed once with washing buffer. Phage solution (100 μl) was added per well and incubated for 1-2 h at room temperature. The plates were washed six times with the washing buffer. HRP-conjugated rabbit anti-M13 antibody (purchased from GE Healthcare) was diluted by 1:5,000 in blocking buffer. The diluted HRP-conjugated rabbit anti-M13 antibody (100 μl) was added to each well and incubated for 1 h at room temperature followed by washing six times with washing buffer.
# (§4) HRP substrate solution (100 μl) was added to each testing well and incubated for 30 min at room temperature. The signals were detected using a microplate reader at 490 nm. […] The positive controls were plates coated with M13 phage and detected with HRP-conjugated anti-M13 antibodies.
# [5] = target: T1, biotinylated ERα36 (chemically …); assay: phage ELISA, biotinylated ERα36 on neutravidin plate, well 2
# Protocol: as §3, §4
# [6] = target: T1, biotinylated ERα36 (chemically …); assay: phage ELISA, biotinylated ERα36 on neutravidin plate, well 3
# Protocol: as §3, §4
binder,measurement,setting,value
"human anti-ERα36 ScFv3 (purified, re-natured) (scFv, also called S33; S33A2r1) scFv: QSVLTQPASVSGSPGQSITISCTGTSSDVGGYNYVSWYQQHPGKAPKLMIYDVSKRPSGVSNRFSGSKSGNTASLTISGLQAEDEADYYCSSYTSSSTLVFGGGTKLTVLGSGGSTITSYNVYYTKLSSSGTEVQLVQSGGGVAQPGRSLRLSCAASGITFNSYGMHWVRQAPGKGLEWVAVMPYDGSNEYYADSVKGRFTISRDNSKNTLYLQMNSLRAEDTAVYYCAKGSGMVQLWADAFDVWGQGTMVTVSSAS",OD490,[1],0.159 OD490
same,OD490,[2],0.171 OD490
same,binding result,[3],binds
"human anti-ERα36 ScFv6 (purified, re-natured) (scFv, also called S66; S66A1r1) scFv: EIVMTQSPGTLSLSPGERATLSCRASQSVDSNFLAWYQQRPGQAPRLLIYGVSSSATGIPDRFSGSGSGTDFTLSIDRLEPEDFAVYYCQQYGSSPTFGGGTKLEIKRSGGSTITSYNVYYTKLSSSGTQVQLQESGGGLVQPGRSLRLSCAASGFTFDDYAMHWVRQAPGKGLEWVSGISWNSGSIGYADSVKGRFTISRDNAKNSLYLQMNSLRAEDTAVYYCARSGDYGAFDIWGQGTMVTVSSAS",binding result,[3],binds
"human anti-ERα36 ScFv7 (purified, re-natured) (scFv, also called S72; S72A2r1) scFv: QSVLTQPPSVSAAPGQKVTISCSGSSSNIGNNYVSWYQQLPGTAPKLLIYDNNKRPSGIPDRFSGSKSGTSATLGITGLQTGDEADYYCGTWDSSLSAGVFGGGTKLTVLGSGGSTITSYNVYYTKLSSSGTEVQLVQSGGGLVQPGRSLRLSCAASGFTFDDYAMHWVRQAPGKGLEWVSGISWNSGSIGYADSVKGRFTISRDNAKNSLYLQMNSLRAEDTALYYCAKEGDSSGWSPDYWGQGTLVTVSSAS",binding result,[3],binds
"phage-displayed ScFv7 (phage clone 12) (scFv, The phage coat protein fusion partner is not described; also called phage single clone No. 12) scFv: QSVLTQPPSVSAAPGQKVTISCSGSSSNIGNNYVSWYQQLPGTAPKLLIYDNNKRPSGIPDRFSGSKSGTSATLGITGLQTGDEADYYCGTWDSSLSAGVFGGGTKLTVLGSGGSTITSYNVYYTKLSSSGTEVQLVQSGGGLVQPGRSLRLSCAASGFTFDDYAMHWVRQAPGKGLEWVSGISWNSGSIGYADSVKGRFTISRDNAKNSLYLQMNSLRAEDTALYYCAKEGDSSGWSPDYWGQGTLVTVSSAS",ELISA Signal (OD490),[4],0.381 OD490
same,ELISA Signal (OD490),[5],0.388 OD490
same,ELISA Signal (OD490),[6],0.383 OD490
"human anti-ERα36 ScFv2 (purified, re-natured) (scFv, also called S24; S24A2r2) scFv: QSALTQPASVSGSPGQSITISCTGTSSDVGGYNYVSWYQQHPGKAPKLMIYDVSKRPSGVSNRFSGSKSGNTASLTISGLQAEDEADYYCSSYTSSSTLVFGGGTKLTVLGSGGSTITSYNVYYTKLSSSGTQVQLLESGAEVKKPGASVKVSCKASGYTFTAYYMHWVRQAPGQGLEWMAMIDPSGSITSYAQKFQGRVTMSRDTSTSTLYMELSSLRSDDTAVYYCARDLKEGFSVPGAFDIWGQGTMVTVSSAS",OD490,[1],0.093 OD490
same,OD490,[2],0.09 OD490
same,binding result,[3],binds
